Measurements taken from patent publication EP4553085A1 (Hangzhou Sumgen Biotech Co., Ltd., dated 2025).

The binders below were run against T1, Human LILRB4/CD85k/ILT3 Protein (ECD, His Tag), Sino Biological (human, UniProt Q8NHJ6 22-259) (assay: ELISA, coated LILRB4 ECD-His).
T1 construct: extracellular domain; Bought protein; it is not tied to this bought protein; also called LILRB4 protein; not shown: His tag

Binder	binding result
chimeric antibody 1A2-7 (antibody, V domains shown) VH: QVQLQQPGAELVKPGASVKLSCKASGYTFTSYWMHWVKQRPGQGLEWIGEINPSNGRTNYNEKFKSKATLTVDKSSSTAYMQLNSLTSEDSAVYYCARDRYDEGNAMDYWGQGTSVTVSS VL: DIVMTQTTSSLSASLGDRVTISCRASQDITNYLNWYQQKPDGTVKLLIYYTSRLHSGVPSRFSGSGSGTDYSLTISNLEQEDIATYFCQQGDTLPRTFGGGTKLEIK	binds
chimeric antibody 3A2-18 (antibody, V domains shown) VH: EVQLQQPGAELVKPGASVKLSCKASGYTFTSYWMHWVKQRPGQGLEWIGEINPSNGRTNYNEKFKSKATLTVDKSSSTAYVQLNSLTSEDSAVYYCARDRYDEGNAMDYWGQGTSVTVSS VL: DIVMTQTTSSLSASLGDRVTISCRASQDITNYLNWYQQKPDGTVKLLIYYTSRLHSGVPSRFSGSGSGTDYSLTISNLEQEDIATYFCQQGDTLPRTFGGGTKLEIK	binds
chimeric antibody 3G9-1 (antibody, V domains shown) VH: QVQLQQPGAELVKPGASVKLSCKASGYTFTSYWMHWVKQRPGQGLEWIGEINPSNGRTNYNEKFKSKATLIVDKSSSTAYMQLSSLTSEDSAVYYCARGIYYGYDYAMDYWGQGTSVTVSS VL: DIQMTHTTSSLSASLGDRVTISCRASQDISNYLNWYQQKPDGTVKLLIYYTSRLHSGVPSRFSGSGSGTDYSLTISNLEQEDIATYFCQQGNTLPPTFGGGTKLEIK	binds
chimeric antibody 5E11-2 (antibody, V domains shown) VH: EVKLEESGGGLVQPGGSMKLSCAASGFTFSDAWMDWVRQSPEKGLEWVAEIRSKPNNHATYYAESVKGRFTISRDDSKSSVYLQMNSLRAEDTGIYYCTRTTDYSMDYWGQGTSVTVSS VL: DIQMTQSPASLAVSLGQRATISCRASQSVSASSYSYMHWYQQKPGQPPKLLIKYASNLQSGVPARFSGSGSGTDFTLNIHPVEEEDSATYYCQHSWEIPRTFGGGTKLEIK	binds
